Test results: patent US20220227815A1, “COMPOSITIONS AND METHODS USEFUL IN TREATING BRAIN DISEASES” (University of Kansas, priority 2019, published 2022)

Columns and labels:
[1] = tested on: APP/PS1 mice; assay: Novel object recognition (NOR) assessment; type: in vivo, transgenic APP/PS1 mice; details: all groups compared
Method: Animals: All animal studies were carried out under the approved animal protocol (AUS-74-11) granted by Institutional Animal Care and Use Committee (IACUC) at The University of Kansas. Animal Care Unit (ACU) personnel and veterinarians were involved in the care of the animals used in this study. Female transgenic APP/PS1 (MMRRC stock #34832-Jax) were obtained from Jackson Laboratory (Bar Harbor, Me.) and housed until at least 6 months of age. Mice received intravenous (i.v.) injections of either BDNF (5.7 nmol/kg)+ADTC5 (10 μmol/kg; n=7), BDNF alone (5.7 nmol/kg; n=6), or vehicle (n=6) every 4 days, for a total of 8 injections. At the end of the study, the mice were euthanized via CO2 inhalation and perfused with PBS immediately followed by 4% formalin fixative solution. The brains were extracted and post-fixed overnight in the perfusion-fixation solution then transferred to 70% ethanol PBS solution for paraffin embedding.
Novel object recognition assessment: Twenty-four hours following the Y-maze assessment, the mice were subjected to Novel Object Recognition (NOR) assessment. […] The mice were allowed to explore the objects for 10 min and the total amount of time each mouse spent interacting with each object was measured. […]

[2] = tested on: recombinant BDNF and pTrkB; assay: Western blot detection of recombinant BDNF and pTrkB in brain; type: in vivo, SJL/elite mice; details: BDNF 5.71 nmol/kg i.v. with or without ADTC5 10 μmol/kg; 20 min; n=3
Method: Female SJL/elite mice, 5 weeks of age (Charles River) were initially intravenously injected via lateral tail vein with 5.71 nmol/kg BDNF (Peprotech, Rocky Hill, N.J.) with (n=3) or without (n=3) 10 μmol/kg ADTC5. BDNF was allowed to circulate for 20-30 min prior to euthanasia via CO2. Immediately following euthanasia, mice were transcardially perfused with protease inhibitor infused TRIS buffer (pH 7.4). The brains of the mice were extracted and placed in the perfusate buffer on ice. For Western blotting, 100-150 mg of brain tissue was sectioned from the most ventral-posterior portion of the brain and placed in 200-250 μL of solution mixture containing 66% tissue protein extraction reagent (TPER; Thermo Fisher, Waltham, […].) and 33% […] neural protein extraction reagent (NPER; Thermo Fisher) with protease and phosphatase inhibitors (Thermo Fisher). […] These bands were not densiometrically analyzed due to high background signal; however, they are shown for qualitative analysis.
To improve the level of detection of BDNF and pTrkB bands via Western blot, the above process was repeated with an increase in dosages of BDNF. […] These images were not quantified due to the variation in dosing regiments; however, they are provided for qualitative analysis of BDNF brain depositions.

B1: BDNF: recombinant brain-derived neurotrophic factor (13 kDa monomer), Peprotech (protein, UniProt P23560 19-247, looked up)
Neurotrophic factor BDNF …: APMKEANIRGQGGLAYPGVRTHGTLESVNGPKAGSRGLTSLADTFEHVIEELLDEDQKVRPNEENNKDADLYTSRVMLSSQVPLEPPLLFLLEEYKNYLDAANMSMRVRRHSDPARRGELSVCDSISEWVTAADKKTAVDMSGGTVTVLEKVPVSKGQLKQYFYETKCNPMGYTKEGCRGIDKRHWNSQCRTTQSYVRALTMDSKKRIGWRFIRIDTSCVCTLTIKRGR
For B1, the “total time spent with either of the two objects” value [1] was “no significant difference” and the “detection of BDNF bands in the brain” value [2] was “undetected”.
